Results reported in the supplement of paper PMC9112550, “Optimization of the antimicrobial peptide Bac7 by deep mutational scanning” (BMC Biology, 2022).

Tested on: Escherichia coli TOP10
Assay: shrunken log2 fold change of peptide-encoding DNA abundance (4.5 h post-induction vs induction); higher = less antimicrobial activity (less host growth inhibition)
Conditions: time post-induction: 4.5 h; library: site-saturation at positions 5, 18, 19, 20
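Also: peptides expressed intracellularly from a pBAD plasmid library in pooled LB shake-flask culture, induced with 0.3% L-arabinose, DNA abundance read by NGS, three biological replicates, DESeq2 with apeglm shrinkage.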

Row | Sequence | shrunken log2 fold change
1 | RRIRVRPPRLPRPRPRPYRRPRP | -0.0654
2 | RRIRWRPPRLPRPRPRPFNKPRP | -0.441
3 | RRIRFRPPRLPRPRPRPHIVPRP | -0.0839
4 | RRIRLRPPRLPRPRPRPCLAPRP | -0.219
5 | RRIRTRPPRLPRPRPRPWVYPRP | -0.294
6 | RRIRSRPPRLPRPRPRPLGYPRP | -0.351
7 | RRIRGRPPRLPRPRPRPAEPPRP | 0.176
8 | RRIRQRPPRLPRPRPRPWNIPRP | -0.0185
9 | RRIRPRPPRLPRPRPRPYPMPRP | -0.0996
10 | RRIRERPPRLPRPRPRPCFHPRP | -0.327
11 | RRIRNRPPRLPRPRPRPFNCPRP | -0.112
12 | RRIRERPPRLPRPRPRPRFPPRP | 0.0958
13 | RRIRRRPPRLPRPRPRPFVKPRP | -0.373
14 | RRIRGRPPRLPRPRPRPDKNPRP | 0.32
15 | RRIRARPPRLPRPRPRPINHPRP | -0.376
16 | RRIRYRPPRLPRPRPRPPKGPRP | -0.163
17 | RRIRGRPPRLPRPRPRPACEPRP | 0.833
18 | RRIRVRPPRLPRPRPRPESLPRP | -0.175
19 | RRIRCRPPRLPRPRPRPHAWPRP | -0.245
20 | RRIRCRPPRLPRPRPRPDRTPRP | 0.0438
21 | RRIRDRPPRLPRPRPRPFTAPRP | -0.128
22 | RRIRDRPPRLPRPRPRPVTLPRP | -0.283
23 | RRIRKRPPRLPRPRPRPWSPPRP | 0.0668
24 | RRIRYRPPRLPRPRPRPRSCPRP | -0.434
25 | RRIRWRPPRLPRPRPRPIKKPRP | -0.0218

Row | Sequence | shrunken log2 fold change
26 | RRIRNRPPRLPRPRPRPPKAPRP | 0.00248
27 | RRIRLRPPRLPRPRPRPPDKPRP | 0.0844
28 | RRIRDRPPRLPRPRPRPQFKPRP | -0.0159
29 | RRIRIRPPRLPRPRPRPANQPRP | -0.693
30 | RRIRTRPPRLPRPRPRPPTDPRP | 0.0638
31 | RRIRDRPPRLPRPRPRPFYQPRP | -0.276
32 | RRIRWRPPRLPRPRPRPRLTPRP | 0.307
33 | RRIRYRPPRLPRPRPRPGLAPRP | 0.323
34 | RRIRCRPPRLPRPRPRPDIFPRP | -0.262
35 | RRIRLRPPRLPRPRPRPRDCPRP | -0.0082
36 | RRIRRRPPRLPRPRPRPQPVPRP | 0.299
37 | RRIRPRPPRLPRPRPRPIVHPRP | -0.155
38 | RRIRTRPPRLPRPRPRPMTLPRP | -0.028
39 | RRIRWRPPRLPRPRPRPNFTPRP | -0.0319
40 | RRIRYRPPRLPRPRPRPRINPRP | -0.196
41 | RRIRGRPPRLPRPRPRPFIYPRP | 0.0217
42 | RRIRDRPPRLPRPRPRPVQEPRP | -0.0575
43 | RRIRKRPPRLPRPRPRPKEQPRP | -0.0322
44 | RRIRTRPPRLPRPRPRPAVSPRP | 0.00645
45 | RRIRVRPPRLPRPRPRPQDIPRP | -0.328
46 | RRIRGRPPRLPRPRPRPRDEPRP | 0.293
47 | RRIRNRPPRLPRPRPRPQANPRP | 0.202
48 | RRIRVRPPRLPRPRPRPQEVPRP | -0.186
49 | RRIRRRPPRLPRPRPRPKSEPRP | 0.0316
50 | RRIRERPPRLPRPRPRPWVMPRP | -0.32

Row | Sequence | shrunken log2 fold change
51 | RRIRERPPRLPRPRPRPRYEPRP | -0.276
52 | RRIRCRPPRLPRPRPRPPEQPRP | 2.18
53 | RRIRDRPPRLPRPRPRPEALPRP | 1.21
54 | RRIRKRPPRLPRPRPRPKMQPRP | 0.00648
55 | RRIRNRPPRLPRPRPRPLWNPRP | -0.511
56 | RRIRRRPPRLPRPRPRPIATPRP | 0.0769
57 | RRIRGRPPRLPRPRPRPWCGPRP | 0.58
58 | RRIRIRPPRLPRPRPRPQTYPRP | -0.636
59 | RRIRERPPRLPRPRPRPAGAPRP | 0.464
60 | RRIRFRPPRLPRPRPRPDQCPRP | -0.0562
61 | RRIRLRPPRLPRPRPRPSVGPRP | 0.101
62 | RRIRWRPPRLPRPRPRPYGVPRP | 0.00576
63 | RRIRDRPPRLPRPRPRPFFAPRP | 0.412
64 | RRIRKRPPRLPRPRPRPGIAPRP | 1.46
65 | RRIRDRPPRLPRPRPRPYHLPRP | -0.0628
66 | RRIRMRPPRLPRPRPRPQRAPRP | 0.943
67 | RRIRKRPPRLPRPRPRPINKPRP | -0.328
68 | RRIRPRPPRLPRPRPRPRYVPRP | -0.24
69 | RRIRPRPPRLPRPRPRPMYQPRP | -0.207
70 | RRIRQRPPRLPRPRPRPCEWPRP | 0.000996
71 | RRIRLRPPRLPRPRPRPHRWPRP | -0.0172
72 | RRIRDRPPRLPRPRPRPRFSPRP | -0.037
73 | RRIRYRPPRLPRPRPRPPSEPRP | -0.0723
74 | RRIRRRPPRLPRPRPRPWYKPRP | -0.371
75 | RRIRTRPPRLPRPRPRPWKNPRP | -0.0599
